In PMC2933578, “Mutational analysis of an archaeal minichromosome maintenance protein exterior hairpin reveals critical residues for helicase activity and DNA binding” (BMC Molecular Biology, 2010):

How the values were obtained:
[1] = target: the molecule itself; assay: SEC; Superose 6 size exclusion column, 250 mM NaCl; ~0.5 mg of protein; markers ferritin (440 kD) and aldolase (158 kD); self-association to the hexamer
[2] = substrate: Nc1ncnc2c1ncn2[C@@H]1O[C@H](COP(=O)(O)OP(=O)(O)OP(=O)(O)O)[C@@H](O)[C@H]1O; assay: EnzChek phosphate release ATPase assay; assay type: biochemical, Saccharolobus solfataricus; settings: no DNA, per monomeric MCM subunit, unit nM
Source text: EnzChek phosphate release ATPase assay on ssoMCM

[3] = mutant M1: text gives lysine K323, Table 2 prints R323A

B1: ssoMCM mutant M6 (D327A) (enzyme, Sulfolobus solfataricus, UniProt Q9UXG1 1-686, looked up)
chain: MEIPSKQIDYRDVFIEFLTTFKGNNNQNKYIERINELVAYRKKSLIIEFSDVLSFNENLAYEIINNTKIILPILEGALYDHILQLDPTYQRDIEKVHVRIVGIPRVIELRKIRSTDIGKLITIDGILVKVTPVKERIYKATYKHIHPDCMQEFEWPEDEEMPEVLEMPTICPKCGKPGQFRLIPEKTKLIDWQKAVIQERPEEVPSGQLPRQLEIILEDDLVDSARPGDRVKVTGILDIKQDSPVKRGSRAVFDIYMKVSSIEVSQKVLDEVIISEEDEKKIKDLAKDPWIRDRIISSIAPSIYGHWELKEALALALFGGVPKVLEATRIRGDIHILIIGDPGTAKSQMLQFISRVAPRAVYTTGKGSTAAGLTAAVVREKGTGEYYLEAGALVLADGGIAVIDEIDKMRDEDRVAIHEAMEQQTVSIAKAGIVAKLNARAAVIAAGNPKFGRYISERPVSDNINLPPTILSRFDLIFILKDQPGEQDRELANYILDVHSGKSTKNIIDIDTLRKYIAYARKYVTPKITSEAKNLITDFFVEMRKKSSETPDSPILITPRQLEALIRISEAYAKMALKAEVTREDAERAINIMRLFLESVGVDMESGKIDIDTIMTGKPKSAREKMMKIIEIIDSLAVSSECAKVKDILKEAQQVGIEKSNIEKLLTDMRKSGIIYEAKPECYKKV
notes: MCM of Sulfolobus solfataricus with D327A; source: cloned and purified (Resource Q anion exchange, size-exclusion chromatography) as described previously [15]
- stoichiometry N [1]: 6
- Km ([2]; mutant M6): 100 ± 20 nM
- kcat ([2]; mutant M6): 0.0383 ± 0.00167 s⁻¹

B2: ssoMCM mutant M5 (E326A) (enzyme, Sulfolobus solfataricus, UniProt Q9UXG1 1-686, looked up)
chain: MEIPSKQIDYRDVFIEFLTTFKGNNNQNKYIERINELVAYRKKSLIIEFSDVLSFNENLAYEIINNTKIILPILEGALYDHILQLDPTYQRDIEKVHVRIVGIPRVIELRKIRSTDIGKLITIDGILVKVTPVKERIYKATYKHIHPDCMQEFEWPEDEEMPEVLEMPTICPKCGKPGQFRLIPEKTKLIDWQKAVIQERPEEVPSGQLPRQLEIILEDDLVDSARPGDRVKVTGILDIKQDSPVKRGSRAVFDIYMKVSSIEVSQKVLDEVIISEEDEKKIKDLAKDPWIRDRIISSIAPSIYGHWELKEALALALFGGVPKVLADTRIRGDIHILIIGDPGTAKSQMLQFISRVAPRAVYTTGKGSTAAGLTAAVVREKGTGEYYLEAGALVLADGGIAVIDEIDKMRDEDRVAIHEAMEQQTVSIAKAGIVAKLNARAAVIAAGNPKFGRYISERPVSDNINLPPTILSRFDLIFILKDQPGEQDRELANYILDVHSGKSTKNIIDIDTLRKYIAYARKYVTPKITSEAKNLITDFFVEMRKKSSETPDSPILITPRQLEALIRISEAYAKMALKAEVTREDAERAINIMRLFLESVGVDMESGKIDIDTIMTGKPKSAREKMMKIIEIIDSLAVSSECAKVKDILKEAQQVGIEKSNIEKLLTDMRKSGIIYEAKPECYKKV
notes: MCM of Sulfolobus solfataricus with E326A; source: cloned and purified (Resource Q anion exchange, size-exclusion chromatography) as described previously [15]
- stoichiometry N [1]: 6

B3: ssoMCM mutant M10 (K346A, Walker A mutant) (enzyme, Sulfolobus solfataricus, UniProt Q9UXG1 1-686, looked up)
chain: MEIPSKQIDYRDVFIEFLTTFKGNNNQNKYIERINELVAYRKKSLIIEFSDVLSFNENLAYEIINNTKIILPILEGALYDHILQLDPTYQRDIEKVHVRIVGIPRVIELRKIRSTDIGKLITIDGILVKVTPVKERIYKATYKHIHPDCMQEFEWPEDEEMPEVLEMPTICPKCGKPGQFRLIPEKTKLIDWQKAVIQERPEEVPSGQLPRQLEIILEDDLVDSARPGDRVKVTGILDIKQDSPVKRGSRAVFDIYMKVSSIEVSQKVLDEVIISEEDEKKIKDLAKDPWIRDRIISSIAPSIYGHWELKEALALALFGGVPKVLEDTRIRGDIHILIIGDPGTAASQMLQFISRVAPRAVYTTGKGSTAAGLTAAVVREKGTGEYYLEAGALVLADGGIAVIDEIDKMRDEDRVAIHEAMEQQTVSIAKAGIVAKLNARAAVIAAGNPKFGRYISERPVSDNINLPPTILSRFDLIFILKDQPGEQDRELANYILDVHSGKSTKNIIDIDTLRKYIAYARKYVTPKITSEAKNLITDFFVEMRKKSSETPDSPILITPRQLEALIRISEAYAKMALKAEVTREDAERAINIMRLFLESVGVDMESGKIDIDTIMTGKPKSAREKMMKIIEIIDSLAVSSECAKVKDILKEAQQVGIEKSNIEKLLTDMRKSGIIYEAKPECYKKV
notes: MCM of Sulfolobus solfataricus with K346A (Walker A lysine); source: cloned and purified (Resource Q anion exchange, size-exclusion chromatography) as described previously [15]
- stoichiometry N [1]: 6

B4: Sulfolobus solfataricus MCM (minichromosome maintenance protein), wild type (enzyme, UniProt Q9UXG1 1-686, looked up)
chain: MEIPSKQIDYRDVFIEFLTTFKGNNNQNKYIERINELVAYRKKSLIIEFSDVLSFNENLAYEIINNTKIILPILEGALYDHILQLDPTYQRDIEKVHVRIVGIPRVIELRKIRSTDIGKLITIDGILVKVTPVKERIYKATYKHIHPDCMQEFEWPEDEEMPEVLEMPTICPKCGKPGQFRLIPEKTKLIDWQKAVIQERPEEVPSGQLPRQLEIILEDDLVDSARPGDRVKVTGILDIKQDSPVKRGSRAVFDIYMKVSSIEVSQKVLDEVIISEEDEKKIKDLAKDPWIRDRIISSIAPSIYGHWELKEALALALFGGVPKVLEDTRIRGDIHILIIGDPGTAKSQMLQFISRVAPRAVYTTGKGSTAAGLTAAVVREKGTGEYYLEAGALVLADGGIAVIDEIDKMRDEDRVAIHEAMEQQTVSIAKAGIVAKLNARAAVIAAGNPKFGRYISERPVSDNINLPPTILSRFDLIFILKDQPGEQDRELANYILDVHSGKSTKNIIDIDTLRKYIAYARKYVTPKITSEAKNLITDFFVEMRKKSSETPDSPILITPRQLEALIRISEAYAKMALKAEVTREDAERAINIMRLFLESVGVDMESGKIDIDTIMTGKPKSAREKMMKIIEIIDSLAVSSECAKVKDILKEAQQVGIEKSNIEKLLTDMRKSGIIYEAKPECYKKV
notes: MCM of Sulfolobus solfataricus, wild type; also called ssoMCM; WT; source: cloned and purified (Resource Q anion exchange, size-exclusion chromatography) as described previously [15]
- stoichiometry N [1]: 6
- Km [2]: 170 ± 20 nM
- kcat [2]: 0.0517 ± 0.00167 s⁻¹

B5: ssoMCM mutant M1 (K323A; printed R323A in Table 2) (enzyme, Sulfolobus solfataricus, UniProt Q9UXG1 1-686, looked up)
chain: MEIPSKQIDYRDVFIEFLTTFKGNNNQNKYIERINELVAYRKKSLIIEFSDVLSFNENLAYEIINNTKIILPILEGALYDHILQLDPTYQRDIEKVHVRIVGIPRVIELRKIRSTDIGKLITIDGILVKVTPVKERIYKATYKHIHPDCMQEFEWPEDEEMPEVLEMPTICPKCGKPGQFRLIPEKTKLIDWQKAVIQERPEEVPSGQLPRQLEIILEDDLVDSARPGDRVKVTGILDIKQDSPVKRGSRAVFDIYMKVSSIEVSQKVLDEVIISEEDEKKIKDLAKDPWIRDRIISSIAPSIYGHWELKEALALALFGGVPAVLEDTRIRGDIHILIIGDPGTAKSQMLQFISRVAPRAVYTTGKGSTAAGLTAAVVREKGTGEYYLEAGALVLADGGIAVIDEIDKMRDEDRVAIHEAMEQQTVSIAKAGIVAKLNARAAVIAAGNPKFGRYISERPVSDNINLPPTILSRFDLIFILKDQPGEQDRELANYILDVHSGKSTKNIIDIDTLRKYIAYARKYVTPKITSEAKNLITDFFVEMRKKSSETPDSPILITPRQLEALIRISEAYAKMALKAEVTREDAERAINIMRLFLESVGVDMESGKIDIDTIMTGKPKSAREKMMKIIEIIDSLAVSSECAKVKDILKEAQQVGIEKSNIEKLLTDMRKSGIIYEAKPECYKKV
notes: MCM of Sulfolobus solfataricus with the mutation of M1; also called K323 (M1); source: cloned and purified (Resource Q anion exchange, size-exclusion chromatography) as described previously [15]
- stoichiometry N [1]: 6
- Km [2, 3]: 140 ± 30 nM
- kcat [2, 3]: 0.03 ± 0.00167 s⁻¹

B6: ssoMCM mutant M8 (R329A) (enzyme, Sulfolobus solfataricus, UniProt Q9UXG1 1-686, looked up)
chain: MEIPSKQIDYRDVFIEFLTTFKGNNNQNKYIERINELVAYRKKSLIIEFSDVLSFNENLAYEIINNTKIILPILEGALYDHILQLDPTYQRDIEKVHVRIVGIPRVIELRKIRSTDIGKLITIDGILVKVTPVKERIYKATYKHIHPDCMQEFEWPEDEEMPEVLEMPTICPKCGKPGQFRLIPEKTKLIDWQKAVIQERPEEVPSGQLPRQLEIILEDDLVDSARPGDRVKVTGILDIKQDSPVKRGSRAVFDIYMKVSSIEVSQKVLDEVIISEEDEKKIKDLAKDPWIRDRIISSIAPSIYGHWELKEALALALFGGVPKVLEDTAIRGDIHILIIGDPGTAKSQMLQFISRVAPRAVYTTGKGSTAAGLTAAVVREKGTGEYYLEAGALVLADGGIAVIDEIDKMRDEDRVAIHEAMEQQTVSIAKAGIVAKLNARAAVIAAGNPKFGRYISERPVSDNINLPPTILSRFDLIFILKDQPGEQDRELANYILDVHSGKSTKNIIDIDTLRKYIAYARKYVTPKITSEAKNLITDFFVEMRKKSSETPDSPILITPRQLEALIRISEAYAKMALKAEVTREDAERAINIMRLFLESVGVDMESGKIDIDTIMTGKPKSAREKMMKIIEIIDSLAVSSECAKVKDILKEAQQVGIEKSNIEKLLTDMRKSGIIYEAKPECYKKV
notes: MCM of Sulfolobus solfataricus with R329A; source: cloned and purified (Resource Q anion exchange, size-exclusion chromatography) as described previously [15]
- stoichiometry N [1]: 6
- Km ([2]; mutant M8): 170 ± 40 nM
- kcat ([2]; mutant M8): 0.03 ± 0.00167 s⁻¹

B7: ssoMCM mutant M2 (V324A) (enzyme, Sulfolobus solfataricus, UniProt Q9UXG1 1-686, looked up)
chain: MEIPSKQIDYRDVFIEFLTTFKGNNNQNKYIERINELVAYRKKSLIIEFSDVLSFNENLAYEIINNTKIILPILEGALYDHILQLDPTYQRDIEKVHVRIVGIPRVIELRKIRSTDIGKLITIDGILVKVTPVKERIYKATYKHIHPDCMQEFEWPEDEEMPEVLEMPTICPKCGKPGQFRLIPEKTKLIDWQKAVIQERPEEVPSGQLPRQLEIILEDDLVDSARPGDRVKVTGILDIKQDSPVKRGSRAVFDIYMKVSSIEVSQKVLDEVIISEEDEKKIKDLAKDPWIRDRIISSIAPSIYGHWELKEALALALFGGVPKALEDTRIRGDIHILIIGDPGTAKSQMLQFISRVAPRAVYTTGKGSTAAGLTAAVVREKGTGEYYLEAGALVLADGGIAVIDEIDKMRDEDRVAIHEAMEQQTVSIAKAGIVAKLNARAAVIAAGNPKFGRYISERPVSDNINLPPTILSRFDLIFILKDQPGEQDRELANYILDVHSGKSTKNIIDIDTLRKYIAYARKYVTPKITSEAKNLITDFFVEMRKKSSETPDSPILITPRQLEALIRISEAYAKMALKAEVTREDAERAINIMRLFLESVGVDMESGKIDIDTIMTGKPKSAREKMMKIIEIIDSLAVSSECAKVKDILKEAQQVGIEKSNIEKLLTDMRKSGIIYEAKPECYKKV
notes: MCM of Sulfolobus solfataricus with V324A; source: cloned and purified (Resource Q anion exchange, size-exclusion chromatography) as described previously [15]
- stoichiometry N [1]: 6
- Km ([2]; mutant M2): 120 ± 20 nM
- kcat ([2]; mutant M2): 0.04 ± 0.00167 s⁻¹

B8: ssoMCM mutant M9 (R331A) (enzyme, Sulfolobus solfataricus, UniProt Q9UXG1 1-686, looked up)
chain: MEIPSKQIDYRDVFIEFLTTFKGNNNQNKYIERINELVAYRKKSLIIEFSDVLSFNENLAYEIINNTKIILPILEGALYDHILQLDPTYQRDIEKVHVRIVGIPRVIELRKIRSTDIGKLITIDGILVKVTPVKERIYKATYKHIHPDCMQEFEWPEDEEMPEVLEMPTICPKCGKPGQFRLIPEKTKLIDWQKAVIQERPEEVPSGQLPRQLEIILEDDLVDSARPGDRVKVTGILDIKQDSPVKRGSRAVFDIYMKVSSIEVSQKVLDEVIISEEDEKKIKDLAKDPWIRDRIISSIAPSIYGHWELKEALALALFGGVPKVLEDTRIAGDIHILIIGDPGTAKSQMLQFISRVAPRAVYTTGKGSTAAGLTAAVVREKGTGEYYLEAGALVLADGGIAVIDEIDKMRDEDRVAIHEAMEQQTVSIAKAGIVAKLNARAAVIAAGNPKFGRYISERPVSDNINLPPTILSRFDLIFILKDQPGEQDRELANYILDVHSGKSTKNIIDIDTLRKYIAYARKYVTPKITSEAKNLITDFFVEMRKKSSETPDSPILITPRQLEALIRISEAYAKMALKAEVTREDAERAINIMRLFLESVGVDMESGKIDIDTIMTGKPKSAREKMMKIIEIIDSLAVSSECAKVKDILKEAQQVGIEKSNIEKLLTDMRKSGIIYEAKPECYKKV
notes: MCM of Sulfolobus solfataricus with R331A; source: cloned and purified (Resource Q anion exchange, size-exclusion chromatography) as described previously [15]
- stoichiometry N [1]: 6
